Source: patent US20180030151A1 (MOGAM INSTITUTE FOR BIOMEDICAL RESEARCH, published 2018)
Numbering of substitutions follows the chain as printed. Values belong to the binder of their own block, whether it stands above or below them.

Legend:
[1] = biological target: T1, recombinant human TFPI (tissue factor pathway inhibitor) (human, UniProt P10646 29-304); assay: cell-based or functional assay
[2] = biological target: TFPI in FVIII-deficient plasma (sample dilution); assay: cell-based or functional assay
[3] = biological target: T1, recombinant human TFPI (tissue factor …); assay: cell-based or functional assay; remark: listed apart in the source
[4] = biological target: T1, recombinant human TFPI (tissue factor …); assay: cell-based or functional assay; remark: listed apart in the source
[5] = biological target: T1, recombinant human TFPI (tissue factor …); assay: SPR, Biacore T-200; TFPI immobilised on CM5 chip, IgG as analyte
Experimental: 10 mM of glycine-HCl (pH 1.5) was run at a flow rate of 30 μL/min for 30 seconds, thereby inducing the dissociation of the antibody associated with the TFPI. The affinity in terms of kinetic rate constants (Kₒₙ and Koff) and equilibrium dissociation constant

TFPI inhibitory activity, FXa activity assay, Ab 10 nM [1]: ~58.2%
TFPI inhibitory activity, FXa activity assay, Ab 40 nM [1]: ~85.1%
TFPI inhibitory activity, TF/FVIIa/FXa complex assay, Ab 50 nM [1]: ~54.2%
TFPI inhibitory activity, TF/FVIIa/FXa complex assay, Ab 100 nM [1]: ~94.3%
ETP vs negative control, thrombin generation assay, Ab 2.5 nM [2]: 122%
thrombin peak vs blank, thrombin generation assay, Ab 2.5 nM [2]: 162%
FXa assay % of FXa alone, 0.625 nM Ab, 10 nM TFPI [3]: 5%
FXa assay % of FXa alone, 2.5 nM Ab, 10 nM TFPI [3]: 8%
FXa assay OD, 0.625 nM Ab, 10 nM TFPI [3]: 0.049 OD
FXa assay OD, 2.5 nM Ab, 10 nM TFPI [3]: 0.078 OD
FXa assay OD, 10 nM Ab, 10 nM TFPI [3]: 0.519 OD
FXa assay OD, 40 nM Ab, 10 nM TFPI [3]: 0.718 OD
TF/FVIIa/FXa assay % of 0 nM TFPI, 12.5 nM Ab, 50 nM TFPI [4]: 17.9%
TF/FVIIa/FXa assay % of 0 nM TFPI, 50 nM Ab, 50 nM TFPI [4]: 66.5%
TF/FVIIa/FXa assay % of 0 nM TFPI, 100 nM Ab, 50 nM TFPI [4]: 104%
TF/FVIIa/FXa assay OD, 12.5 nM Ab, 50 nM TFPI [4]: 0.143 OD
TF/FVIIa/FXa assay OD, 25 nM Ab, 50 nM TFPI [4]: 0.248 OD
TF/FVIIa/FXa assay OD, 50 nM Ab, 50 nM TFPI [4]: 0.533 OD
TF/FVIIa/FXa assay OD, 100 nM Ab, 50 nM TFPI [4]: 0.833 OD
Kd [5]: 0.05 nM
B1: clone 308 (antibody, V domains shown)
VH: EVQLVESGGGLVKPGGSLRLSCAASGFTFSSYAMNWVRQAPGKGLEWVSTITTGGSYTYYADSVKGRFTISRDNAKNSLYLQMNSLRAEDTAVYYCARQDGNFLMDYWGQGTLVTVSS
VL: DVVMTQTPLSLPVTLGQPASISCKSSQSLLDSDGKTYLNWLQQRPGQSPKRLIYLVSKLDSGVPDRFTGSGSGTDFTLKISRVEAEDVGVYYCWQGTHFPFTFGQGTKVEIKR
notes: Humanized form of T417, IgG

TFPI inhibitory activity, FXa activity assay, Ab 10 nM [1]: 72%
TFPI inhibitory activity, FXa activity assay, Ab 40 nM [1]: 85%
TFPI inhibitory activity, TF/FVIIa/FXa complex assay, Ab 50 nM [1]: 100%
TFPI inhibitory activity, TF/FVIIa/FXa complex assay, Ab 100 nM [1]: 100%
FXa assay % of FXa alone, 0.625 nM Ab, 10 nM TFPI [3]: 5%
FXa assay % of FXa alone, 2.5 nM Ab, 10 nM TFPI [3]: 8%
FXa assay OD, 0.625 nM Ab, 10 nM TFPI [3]: 0.053 OD
FXa assay OD, 2.5 nM Ab, 10 nM TFPI [3]: 0.078 OD
FXa assay OD, 10 nM Ab, 10 nM TFPI [3]: 0.71 OD
FXa assay OD, 40 nM Ab, 10 nM TFPI [3]: 0.832 OD
TF/FVIIa/FXa assay % of 0 nM TFPI, 12.5 nM Ab, 50 nM TFPI [4]: 18.5%
TF/FVIIa/FXa assay % of 0 nM TFPI, 50 nM Ab, 50 nM TFPI [4]: 102%
TF/FVIIa/FXa assay % of 0 nM TFPI, 100 nM Ab, 50 nM TFPI [4]: 110%
TF/FVIIa/FXa assay OD, 12.5 nM Ab, 50 nM TFPI [4]: 0.148 OD
TF/FVIIa/FXa assay OD, 25 nM Ab, 50 nM TFPI [4]: 0.303 OD
TF/FVIIa/FXa assay OD, 50 nM Ab, 50 nM TFPI [4]: 0.816 OD
TF/FVIIa/FXa assay OD, 100 nM Ab, 50 nM TFPI [4]: 0.88 OD
Kd [5]: 0.033 nM
B2: clone 308-2 (antibody, V domains shown)
VH: B1 VH with K65Q
VL: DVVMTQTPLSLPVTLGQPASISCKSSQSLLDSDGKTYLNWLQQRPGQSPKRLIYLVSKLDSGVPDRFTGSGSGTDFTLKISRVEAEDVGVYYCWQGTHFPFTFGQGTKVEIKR
